# Residue numbers refer to the chain shown, from its start.
# T1: human E-selectin, cell-surface expressed (human, UniProt P16581 22-610)
# T1 sequence: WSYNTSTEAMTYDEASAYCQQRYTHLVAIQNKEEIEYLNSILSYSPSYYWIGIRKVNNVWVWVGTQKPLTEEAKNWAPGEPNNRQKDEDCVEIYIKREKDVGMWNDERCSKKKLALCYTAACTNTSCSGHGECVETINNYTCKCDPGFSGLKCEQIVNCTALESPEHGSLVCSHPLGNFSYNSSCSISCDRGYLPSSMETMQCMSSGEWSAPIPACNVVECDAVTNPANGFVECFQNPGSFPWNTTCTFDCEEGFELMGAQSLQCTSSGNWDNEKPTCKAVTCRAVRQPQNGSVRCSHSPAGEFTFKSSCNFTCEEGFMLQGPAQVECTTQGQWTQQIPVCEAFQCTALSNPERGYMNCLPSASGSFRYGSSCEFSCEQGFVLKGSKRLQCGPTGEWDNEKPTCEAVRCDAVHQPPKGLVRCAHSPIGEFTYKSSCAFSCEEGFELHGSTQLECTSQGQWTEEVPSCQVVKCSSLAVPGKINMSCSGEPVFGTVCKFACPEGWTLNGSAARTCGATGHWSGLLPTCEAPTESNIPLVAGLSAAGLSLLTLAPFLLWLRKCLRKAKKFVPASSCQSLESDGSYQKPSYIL
# T2: human P-selectin expressed on CHO cells (human, UniProt P16109 42-830)
# T2 construct: whole, on cells; also called CHO-human P-selectin cells; CHO-P-selectin cells
# T2 sequence (looked up): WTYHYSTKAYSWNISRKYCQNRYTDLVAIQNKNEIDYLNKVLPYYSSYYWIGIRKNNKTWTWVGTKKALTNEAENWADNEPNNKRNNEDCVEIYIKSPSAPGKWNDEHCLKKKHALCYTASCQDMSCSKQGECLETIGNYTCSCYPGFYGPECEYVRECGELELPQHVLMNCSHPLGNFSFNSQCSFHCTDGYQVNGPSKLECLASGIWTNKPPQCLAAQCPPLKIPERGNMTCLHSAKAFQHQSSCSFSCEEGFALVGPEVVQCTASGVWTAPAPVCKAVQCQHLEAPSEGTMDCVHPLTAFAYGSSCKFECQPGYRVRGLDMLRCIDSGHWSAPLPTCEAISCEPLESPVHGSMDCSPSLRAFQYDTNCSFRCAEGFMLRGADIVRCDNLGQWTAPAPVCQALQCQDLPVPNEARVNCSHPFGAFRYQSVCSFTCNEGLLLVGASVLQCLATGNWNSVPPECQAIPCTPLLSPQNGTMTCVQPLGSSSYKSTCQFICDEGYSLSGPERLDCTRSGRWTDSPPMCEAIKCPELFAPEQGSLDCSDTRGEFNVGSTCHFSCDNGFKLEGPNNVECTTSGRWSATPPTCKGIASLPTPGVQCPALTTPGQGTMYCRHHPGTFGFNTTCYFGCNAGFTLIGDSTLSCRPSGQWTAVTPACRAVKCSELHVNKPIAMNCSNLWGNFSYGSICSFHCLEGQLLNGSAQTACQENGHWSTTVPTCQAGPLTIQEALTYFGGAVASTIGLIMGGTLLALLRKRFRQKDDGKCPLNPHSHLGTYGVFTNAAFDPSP
# B1: anti-E-selectin antibody 0158 chimera (antibody, human IgG1, kappa, V domains shown)
# VH: QVQLKESGPGLVQPSETLSLTCTVSGFSISTYNVHWLRQPPGKGLEWMGMMWSGGSPDYNSALKSRLSISRDTSKNQVFLKMNSLQSEDTTTYYCARWGGGFDYWGQGVMVTVSS
# VL: DIVLTQSPTTLSVTPGETVSLSCRASHSIGTNLHWYQQKTNESPRLLIKFTSQSISGIPSRFSASGSGTDFTLNINNVEFDDVSSYFCQQTQSWPLTFGSGTKLEIKR
# notes: rat VH/VL on effector-null human IgG1 and human kappa
# B2: anti-E-selectin antibody 0159 chimera (antibody, human IgG1, kappa, V domains shown)
# VH: EVQLQQSGAELGKPGTSVKLSCKVSGYNIRSTYMHWVSQRPGKGLEWIGRIDPANGNTIYAEKFKRKATLTADTSSNTAYMQLSQLKSDDRAIYFCAMEVRVSFEYWGQGVMVTVSS
# VL: DIQMTQSPSFLSASVGDRVTINCKASQNINKYLDWYQQKLGEGPKLLIYYTNNLHTGIPSRFSGSGSGTDFTLTISSLQPEDVATYFCLQHDSGYTFGAGTKLELKR
# notes: as for B1
# B3: anti-E-selectin antibody 0170 chimera (antibody, human IgG1, kappa, V domains shown)
# VH: EVQLQQSGAELGKPGTSVKLSCKVSGYSIRSTYMHWVNQRPGKGLEWVGRIDPANGNTIYAERFKNKATLTADTSSNTAYMQLSQLKSDDTAIYFCAVEILGIFDYWGQGVMVTVSS
# VL: B2 VL with N30D, G43A, I48M, Y50N, N53S, D92N
# notes: as for B1
# B4: anti-E-selectin antibody 0180 chimera (antibody, human IgG1, kappa, V domains shown)
# VH: EVQLQQSGAELGKPGTSVKLSCKVSGYKIRSSYMHWVNQRPGKGLEWIGRIDPANGNTIYGDKFKSKATLTSDTSSNTAYIQLSQLKSDDTAIYFCAIDIGTTFDYWGQGVMVTVSS
# VL: DIQMTQSPSFLSASVGDRVTINCKASQHINRYLNWYQQKLGEAPKLLIYDANNLQTGIPSRFSGSGSGTDFTLTISSLQPEDVATYFCLQHNSWPNTFGAGTKLELKR
# notes: as for B1
# B5: anti-E-selectin antibody 0164 chimera (antibody, human IgG1, kappa, V domains shown)
# VH: EVQLQQSGAEFGKPGTSVKLSCKVSGYNIRSSYMHWVNQRPGKGLEWIGRIDPANGNTIYAEKFKIKAILTADSSSNTAYMQLSQLKSDDTAIYFCAMDLYSTSEYWGQGVMVTVSS
# VL: B4 VL with A25T, H28N, D50N, N53S, G64A, S76N, H91D, N96L, A100S, L106I
# notes: as for B1
# Target: T1, human E-selectin, cell-surface expressed
# Experiment: cell-based or functional assay
row,"static neutralization, HL-60 Cell adhesion CHO-Human E-selectin cells IC50 (nM)",Binder
1,> 50 % inhibition at 16.5 nM,B1
2,> 50 % inhibition at 49.4 nM,B2
3,> 50 % inhibition at 444 nM,B3
4,> 50 % inhibition at 444 nM,B4
5,> 50 % inhibition at 16.5 nM,B5

# Target: T2, human P-selectin expressed on CHO cells
# Experiment: flow cytometry, CHO cells
# Method: Cells were maintained in growth medium at 37° C., 5% CO₂ and 95% air in a humidified incubator. Methotrexate or Zeocin were removed from the medium prior to culture for experiments. CHO-E selectin cells or P-selectin cells were detached from T-150 flasks using citric saline (135 mM KCl, 15 mM sodium citrate) and immediately re-calcified with the addition of CaCl₂) to the detached cells to a final concentration of 1 mM. Growth media was immediately added to the detached cells, then centrifuged at 300×g for 5 minutes at room temperature to pellet the cells. Cells were plated into 96-well V-bottom plates in cold CHO buffer consisting of phosphate buffered saline (PBS), pH 7.4 containing bovine serum albumin (BSA; Sigma-Aldrich) at final concentration of 1%, calcium chloride at final concentration of 1 mM, and sodium azide at a final concentration of 0.1%, for 5 minutes on wet ice. After incubation, the cells were centrifuged at 300×g for 2 minutes at 4° C. to remove the buffer.
# After incubation, antibodies were removed and the cells were washed three times by centrifugation at 300×g for 1 minute at 4° C. and resuspended in cold CHO buffer. The washed cells were incubated for 30 minutes on wet ice with 100 μL of a 1:1000 dilution of APC-conjugated AffiniPure F(ab′)₂ Fragment Goat Anti-human IgG, Fcγ (Jackson Imnnunoresearch). The cells were washed three or four times prior to resuspension in CHO buffer for flow cytometric analysis. A Becton Dickinson LSRFortessa instrument using 640 nanometer laser line was used to acquire cell fluorescence data. Geometric mean fluorescence of cells was analyzed by FlowJo software package (FlowJo, LLC) and plotted against antibody concentration. The estimated EC₅₀ values were calculated using nonlinear regression analysis in the Prism suite (GraphPad, version 8) (Table 8).
row,binding result,Binder
1,no binding,B1
2,no binding,B2
3,no binding,B3
4,no binding,B4
5,no binding,B5

# — patent publication US20240076386A1 (Pfizer, published 2024)
